B1: acrylodan-labeled PNKP (PNKP^WFX402-AC) (enzyme)
chain: not shown
modifications: acrylodan (6-acryloyl-2-dimethylaminonaphthalene, AC) label, site not stated
B2: His-XRCC1^161–406 (domain or fragment)
chain: PSQKVTVTKLGQFRVKEEDESANSLRPGALFFSRINKTSPVTASDPAGPSYAAATLQASSAASSASPVSRAIGSTSKPQESPKGKRKLDLNQEEKKTPSKPPAQLSPSVPKRPKLPAPTRTPATAPVPARAQGAVTGKPRGEGTEPRRPRAGPEELGKILQGVVVVLSGFQNPFRSELRDKALELGAKYRPDWTRDSTHLICAFANTPKYSQVLGLGGRIVRKEWVLDCHRMRRRLPSQRYLMAGP

Legend:
[1] = biological target: T1, full-length XRCC1-His (recombinant, from E. coli) (human, UniProt P18887 1-633); assay: other fluorescence titration; quenching of acrylodan fluorescence of PNKP-AC (excitation 380 nm, emission 485-490 nm) by added XRCC1 protein; 25 °C; PNKP-AC 20 nM with full-length XRCC1-His, 80 nM with His-XRCC1^161–406 and in the emission scans with His-XRCC1^FFF; nonlinear regression, unimodal binding; conditions: both partners purified
T1 construct: XRCC1, human, full length, not phosphorylated (made in E. coli); also called wild-type XRCC1; X-ray repair cross-complementing 1; source: E. coli (pET16b-XH), purified

[2] = biological target: B1; assay: as above; conditions: both partners purified

T1 sequence (P18887 whole entry): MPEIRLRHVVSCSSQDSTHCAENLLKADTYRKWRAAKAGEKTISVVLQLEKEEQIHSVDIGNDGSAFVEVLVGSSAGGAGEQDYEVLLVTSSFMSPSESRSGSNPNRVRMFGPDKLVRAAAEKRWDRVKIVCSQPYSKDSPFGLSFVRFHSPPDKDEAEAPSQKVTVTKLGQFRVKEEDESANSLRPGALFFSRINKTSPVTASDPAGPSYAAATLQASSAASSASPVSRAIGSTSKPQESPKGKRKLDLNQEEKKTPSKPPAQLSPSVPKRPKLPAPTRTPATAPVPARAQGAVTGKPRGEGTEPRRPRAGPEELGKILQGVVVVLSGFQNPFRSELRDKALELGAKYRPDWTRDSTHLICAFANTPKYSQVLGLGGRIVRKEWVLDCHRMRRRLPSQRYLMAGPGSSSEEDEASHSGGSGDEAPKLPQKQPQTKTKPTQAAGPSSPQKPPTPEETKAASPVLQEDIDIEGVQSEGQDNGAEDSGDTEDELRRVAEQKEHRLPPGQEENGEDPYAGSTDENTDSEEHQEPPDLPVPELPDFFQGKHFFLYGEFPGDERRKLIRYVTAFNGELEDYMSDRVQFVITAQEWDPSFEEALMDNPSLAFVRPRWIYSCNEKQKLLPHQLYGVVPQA

Kd [1] [nM]	Kd [2] [nM]	Binder
~30	–	B1
–	~95	B2
